The results in this text go back to patent US20160058848A1.

For data set [1], the target named is T1, human corin variant T555I/Q568P, Q9Y5Q5.
T1 chain: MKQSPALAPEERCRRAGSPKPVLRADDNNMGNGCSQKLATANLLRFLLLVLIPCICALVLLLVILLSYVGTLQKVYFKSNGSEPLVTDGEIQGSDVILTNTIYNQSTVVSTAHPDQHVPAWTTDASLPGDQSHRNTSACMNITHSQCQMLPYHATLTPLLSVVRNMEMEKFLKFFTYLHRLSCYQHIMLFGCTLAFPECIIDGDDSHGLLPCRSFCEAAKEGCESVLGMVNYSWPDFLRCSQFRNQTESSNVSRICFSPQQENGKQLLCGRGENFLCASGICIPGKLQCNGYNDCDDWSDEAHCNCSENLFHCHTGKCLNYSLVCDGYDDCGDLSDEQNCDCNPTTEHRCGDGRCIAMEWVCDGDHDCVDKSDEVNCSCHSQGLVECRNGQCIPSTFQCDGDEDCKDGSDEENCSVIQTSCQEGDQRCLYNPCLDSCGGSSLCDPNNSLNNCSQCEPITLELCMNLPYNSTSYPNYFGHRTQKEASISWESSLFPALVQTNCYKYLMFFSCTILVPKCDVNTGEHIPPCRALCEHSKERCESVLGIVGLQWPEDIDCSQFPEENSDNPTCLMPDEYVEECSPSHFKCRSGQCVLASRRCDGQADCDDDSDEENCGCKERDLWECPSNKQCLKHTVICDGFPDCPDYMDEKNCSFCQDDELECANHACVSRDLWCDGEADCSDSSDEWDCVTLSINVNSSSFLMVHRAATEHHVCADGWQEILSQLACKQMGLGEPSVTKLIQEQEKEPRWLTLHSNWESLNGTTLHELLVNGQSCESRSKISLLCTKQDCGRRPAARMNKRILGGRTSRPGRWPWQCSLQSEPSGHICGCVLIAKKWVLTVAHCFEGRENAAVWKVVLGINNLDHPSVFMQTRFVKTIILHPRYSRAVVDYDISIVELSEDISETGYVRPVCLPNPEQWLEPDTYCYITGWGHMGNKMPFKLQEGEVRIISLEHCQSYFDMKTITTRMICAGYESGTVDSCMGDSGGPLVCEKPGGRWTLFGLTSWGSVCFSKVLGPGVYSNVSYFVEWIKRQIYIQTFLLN

Data set [2] concerns the target T2, human corin variant T555I, Q9Y5Q5.
T2 chain: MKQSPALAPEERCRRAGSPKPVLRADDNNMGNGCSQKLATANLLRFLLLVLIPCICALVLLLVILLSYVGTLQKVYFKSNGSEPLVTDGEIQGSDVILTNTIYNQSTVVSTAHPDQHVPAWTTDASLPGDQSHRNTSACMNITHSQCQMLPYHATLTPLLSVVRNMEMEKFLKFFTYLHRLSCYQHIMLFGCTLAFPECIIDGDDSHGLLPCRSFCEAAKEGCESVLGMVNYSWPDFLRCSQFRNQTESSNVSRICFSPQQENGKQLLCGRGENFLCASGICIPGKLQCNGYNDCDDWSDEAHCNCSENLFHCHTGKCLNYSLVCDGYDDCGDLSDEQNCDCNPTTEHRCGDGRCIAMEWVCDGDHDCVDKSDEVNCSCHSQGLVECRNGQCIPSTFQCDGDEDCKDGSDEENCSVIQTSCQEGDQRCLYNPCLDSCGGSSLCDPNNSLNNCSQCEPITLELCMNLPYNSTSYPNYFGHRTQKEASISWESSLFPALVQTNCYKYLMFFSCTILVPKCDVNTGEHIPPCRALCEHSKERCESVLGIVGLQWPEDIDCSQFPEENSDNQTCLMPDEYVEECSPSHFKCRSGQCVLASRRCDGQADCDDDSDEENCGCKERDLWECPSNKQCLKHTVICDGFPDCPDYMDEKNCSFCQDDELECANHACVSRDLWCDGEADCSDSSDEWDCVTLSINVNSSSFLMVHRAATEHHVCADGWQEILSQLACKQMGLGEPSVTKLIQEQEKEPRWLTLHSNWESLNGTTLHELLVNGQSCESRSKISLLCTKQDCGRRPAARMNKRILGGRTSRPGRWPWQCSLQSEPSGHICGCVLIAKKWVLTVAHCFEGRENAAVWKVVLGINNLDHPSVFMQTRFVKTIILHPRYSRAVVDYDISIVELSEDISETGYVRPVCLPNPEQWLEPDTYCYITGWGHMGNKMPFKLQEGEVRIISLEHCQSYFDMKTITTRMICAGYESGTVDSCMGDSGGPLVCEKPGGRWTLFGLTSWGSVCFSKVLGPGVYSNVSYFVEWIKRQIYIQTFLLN

Data set [3] addresses T3, recombinant human corin wild-type (WT), Q9Y5Q5.
T3 chain: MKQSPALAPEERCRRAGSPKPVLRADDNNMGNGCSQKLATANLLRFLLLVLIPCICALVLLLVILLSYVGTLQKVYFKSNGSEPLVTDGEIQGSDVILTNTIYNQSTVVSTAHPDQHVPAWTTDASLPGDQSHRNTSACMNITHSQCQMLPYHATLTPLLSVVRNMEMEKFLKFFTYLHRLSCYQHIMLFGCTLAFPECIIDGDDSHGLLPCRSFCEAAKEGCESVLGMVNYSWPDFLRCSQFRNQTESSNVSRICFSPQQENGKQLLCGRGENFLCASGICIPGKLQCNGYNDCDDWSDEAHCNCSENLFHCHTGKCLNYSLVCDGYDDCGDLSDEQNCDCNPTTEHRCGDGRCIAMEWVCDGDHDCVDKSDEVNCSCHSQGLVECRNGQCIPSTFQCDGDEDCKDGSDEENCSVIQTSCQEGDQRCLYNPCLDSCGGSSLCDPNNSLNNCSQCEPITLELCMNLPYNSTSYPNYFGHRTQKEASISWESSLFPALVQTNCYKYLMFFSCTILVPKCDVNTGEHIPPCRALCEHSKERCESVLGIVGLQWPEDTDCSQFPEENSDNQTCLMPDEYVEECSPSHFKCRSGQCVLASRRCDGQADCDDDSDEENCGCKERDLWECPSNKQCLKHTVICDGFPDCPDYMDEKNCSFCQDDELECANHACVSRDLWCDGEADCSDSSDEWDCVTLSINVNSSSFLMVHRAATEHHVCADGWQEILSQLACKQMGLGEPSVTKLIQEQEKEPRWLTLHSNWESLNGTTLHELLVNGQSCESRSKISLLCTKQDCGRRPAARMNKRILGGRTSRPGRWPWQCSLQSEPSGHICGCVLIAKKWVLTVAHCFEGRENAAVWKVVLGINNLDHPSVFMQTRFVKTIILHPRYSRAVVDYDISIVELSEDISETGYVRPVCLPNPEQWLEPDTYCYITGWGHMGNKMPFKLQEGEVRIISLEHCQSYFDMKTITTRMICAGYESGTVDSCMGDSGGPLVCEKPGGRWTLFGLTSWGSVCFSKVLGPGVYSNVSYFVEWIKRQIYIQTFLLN

B1: recombinant human proprotein convertase subtilisin/kexin-6 (PCSK6) with a C-terminal flag tag (protein)
chain: QVRSDPQALYFNDPIWSNMWYLHCGDKNSRCRSEMNVQAAWKRGYTGKNVVVTILDDGIERNHPDLAPNYDSYASYDVNGNDYDPSPRYDASNENKHGTRCAGEVAASANNSYCIVGIAYNAKIGGIRMLDGDVTDVVEAKSLGIRPNYIDIYSASWGPDDDGKTVDGPGRLAKQAFEYGIKKGRQGLGSIFVWASGNGGREGDYCSCDGYTNSIYTISVSSATENGYKPWYLEECASTLATTYSSGAFYERKIVTTDLRQRCTDGHTGTSVSAPMVAGIIALALEANSQLTWRDVQHLLVKTSRPAHLKASDWKVNGAGHKVSHFYGFGLVDAEALVVEAKKWTAVPSQHMCVAASDKRPRSIPLVQVLRTTALTSACAEHSDQRVVYLEHVVVRTSISHPRRGDLQIYLVSPSGTKSQLLAKRLLDLSNEGFTNWEFMTVHCWGEKAEGQWTLEIQDLPSQVRNPEKQGKLKEWSLILYGTAEHPYHTFSAHQSRSRMLELSAPELEPPKAALSPSQVEVPEDEEDYTAQSTPGSANILQTSVCHPECGDKGCDGPNADQCLNCVHFSLGSVKTSRKCVSVCPLGYFGDTAARRCRRCHKGCETCSSRAATQCLSCRRGFYHHQEMNTCVTLCPAGFYADESQKNCLKCHPSCKKCVDEPEKCTVCKEGFSLARGSCIPDCEPGTYFDSELIRCGECHHTCGTCVGPGREECIHCAKNFHFHDWKCVPACGEGFYPEEMPGLPHKVCRRCDENCLSCAGSSRNCSRCKTGFTQLGTSCITNHTCSNADETFCEMVKSNRLCERKLFIQFCCRTCLLAG
B1: the “PCSK6-mediated activation cleavage (Western blot, densitometry)” value in data set [1] was “PCSK6-mediated activation cleavage was detected in corin WT and variants T555I or Q568P, but not variant T555I/Q568P”; in data set [2] it was “PCSK6-mediated activation cleavage was detected in corin WT and variants T555I or Q568P, but not variant T555I/Q568P”; in data set [3], “PCSK6-mediated activation cleavage was detected in corin WT and variants T555I or Q568P, but not variant T555I/Q568P”.
